# Values of other authors in publication PMC10065799, “High-throughput profiling of sequence recognition by tyrosine kinases and SH2 domains using bacterial peptide display” (eLife, 2023).
# Target: PD1 phosphosite peptide (Homo sapiens) (UniProt Q15116)
substance,measurement,value
SHP2 N-SH2 (from UniProt Q06124),Kd,2 µM
